From US20110206724A1

Key:
Experiment in all cases: capture ELISA on E. coli lysate
[1] = biological target: HyW-IM2(74) hybrid WHcAg construct (woodchuck hepatitis virus; influenza A virus)
[2] = biological target: 150C-IM2(74) hybrid WHcAg construct (woodchuck hepatitis virus; influenza A virus)
[3] = biological target: WT-R-IM2(74) hybrid WHcAg construct (woodchuck hepatitis virus; influenza A virus)
[4] = biological target: HyW-IM2(-)78 hybrid WHcAg particle (woodchuck hepatitis virus; influenza A virus)

## mAb 14C2, anti-influenza M2e (antibody)
[1]
  relative binding score (Accessability) (relative score): 3
[2]
  relative binding score (Accessability) (relative score): 3
[3]
  relative binding score (Accessability) (relative score): 2
[4]
  relative binding score (Accessability) (relative score): 3
